# Assay results reported in paper PMC4454046, “Aptamer-based Sandwich Assay and its Clinical Outlooks for Detecting Lipocalin-2 in Hepatocellular Carcinoma (HCC)”.
# Target: Lipocalin-2 (LCN2, NGAL) (human, UniProt P80188 21-198)
# Assay: SPR (BIAcore 3000, CM5 chip); SPR BIAcore 3000, 24 C, LCN2 amine-coupled to CM5 chip; running buffer for the Kd assay not stated (HBS-EP used for SA-chip activation)
# Conditions: protein: recombinant; tags: C-terminal polyhistidine
# Lipocalin-2 (LCN2, NGAL), sequence (P80188 21-198): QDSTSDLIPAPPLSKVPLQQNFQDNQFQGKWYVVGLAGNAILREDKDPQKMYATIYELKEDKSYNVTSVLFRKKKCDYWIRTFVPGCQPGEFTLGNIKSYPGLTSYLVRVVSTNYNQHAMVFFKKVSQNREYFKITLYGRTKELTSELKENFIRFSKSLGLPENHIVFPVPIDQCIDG
Binder,binding result,Kd
LCN2_apta25 (ssDNA) DNA: ATACCAGCTTATTCAATTGCCACTCGACATGCTTGCCTGTACACTAAAACACTATTCAGATAGTAAGTGCAATCT,no binding,–
LCN2_apta11 (ssDNA) DNA: ATACCAGCTTATTCAATTGCGATCGACGCCTGGAGAAGTTCCAGCATTAGCGTAAGTGAGATAGTAAGTGCAATCT,no binding,–
LCN2_apta16 (ssDNA) DNA: ATACCAGCTTATTCAATTCCGCGTCACCTCACTGCTCCCACCTGCGTTGCGTCTCTAAGATAGTAAGTGCAATCT,–,220 nM
LCN2_apta30 (ssDNA) DNA: ATACCAGCTTATTCAATTGCACGGGTAAGAAAACGGGGAACTTGAAAGTAGTGCTGTGAGATAGTAAGTGCAATCT,–,86.4 nM
LCN2_apta13 (ssDNA) DNA: ATACCAGCTTATTCAATTCGCGGCCTAACTTTGGAAGTTCCTCAGAATACTCAGTTGAGATAGTAAGTGCAATCT,no binding,–
LCN2_apta17 (ssDNA) DNA: ATACCAGCTTATTCAATTCACGTGCGACAGGGGGATCTGGCTTTATCCCAGCGTGTTAAGATAGTAAGTGCAATCT,no binding,–
LCN2_apta7 (ssDNA) DNA: ATACCAGCTTATTCAATTCCGCGTCACCTCACTGCTCCCACTGCGTTGCGTCTCTAAGATAGTAAGTGCAATCT,–,1.1 nM
LCN2_apta6 (ssDNA) DNA: ATACCAGCTTATTCAATTGCACGGTACGCTCTTGAGTGATCCACAATTTCTAACCGCGAGATAGTAAGTGCAATCT,–,0.801 nM
LCN2_apta34 (ssDNA) DNA: ATACCAGCTTATTCAATTCGGAGCGGTAGTTTGAGGAGGAAACAACCCGGCCTTGGAGAGATAGTAAGTGCAATCT,–,2870 nM
LCN2_apta31 (ssDNA) DNA: ATACCAGCTTATTCAATTCCCGATCAGAACATCGGCTCTTATACCCGTTTTGGTCACGAGATAGTAAGTGCAATCT,–,1780 nM
LCN2_apta24 (ssDNA) DNA: ATACCAGCTTATTCAATTGGGGAACTGAATTATCAGAGATTTTATTCACCTCGTTGGGAGATAGTAAGTGCAATCT,no binding,–
LCN2_apta18 (ssDNA) DNA: ATACCAGCTTATTCAATTCCAGCAAGTAAAGGTTATTTACTAGTTAGGGGCTTCTTGAGATAGTAAGTGCAATCT,–,3380 nM
LCN2_apta5 (ssDNA) DNA: ATACCAGCTTATTCAATTCCCAGCAATCCATTACTTCGTTAGTTCTAATTACCAACCAGATAGTAAGTGCAATCT,–,0.0816 nM
LCN2_apta27 (ssDNA) DNA: ATACCAGCTTATTCAATTGCGATAATCTTGGTTTTCTTTTCAGTTTCTTTAGGGCGGGAGATAGTAAGTGCAATCT,–,13.9 nM
LCN2_apta22 (ssDNA) DNA: ATACCAGCTTATTCAATTCCAACGAGGATGCCAAAGAAAGGTGAGGTGGTCCTAAGGGAGATAGTAAGTGCAATCT,–,8440 nM
LCN2_apta3 (ssDNA) DNA: ATACCAGCTTATTCAATTCCCAAGGGCGAGCTGGCGGCTTGTTGCATAAATTCGTGGAGATAGTAAGTGCAATCT,–,0.00719 nM

Binder,binding result,Kd
LCN2_apta10 (ssDNA) DNA: ATACCAGCTTATTCAATTGGCAGTAGGGCGGGGGGGAGCATGGAGCACATTCTTGTCGAGATAGTAAGTGCAATCT,–,99.9 nM
LCN2_apta21 (ssDNA) DNA: ATACCAGCTTATTCAATTCCGGATTTTCGCACGGCTAGCGGGGAACCACTGTCTGGGAGATAGTAAGTGCAATCT,–,872 nM
LCN2_apta26 (ssDNA) DNA: ATACCAGCTTATTCAATTCCAACACCTTGGGTATCCTGTTATATTCACTTGTTGAGTAAGATAGTAAGTGCAATCT,–,118 nM
LCN2_apta8 (ssDNA) DNA: ATACCAGCTTATTCAATTCGACAATAGATCAGAACGCTCGAGTTCGCGAGGTGGGGGAGATAGTAAGTGCAATCT,–,3.42 nM
LCN2_apta1 (ssDNA) DNA: ATACCAGCTTATTCAATTGCCACGACTTGGGGAATCCTAAGGGCTGTGAACGCCGTGGAGATAGTAAGTGCAATCT,–,0.000647 nM
LCN2_apta29 (ssDNA) DNA: ATACCAGCTTATTCAATTCCGTGACAAGTTGCAGGGGCTGTGCGGTTCTTTTTTTTTGAGATAGTAAGTGCAATCT,–,565 nM
LCN2_apta12 (ssDNA) DNA: ATACCAGCTTATTCAATTCAGGGAAAGGTTACGCGACACATTAGTTTTGAGTCCGTTCAGATAGTAAGTGCAATCT,–,84.5 nM
LCN2_apta33 (ssDNA) DNA: ATACCAGCTTATTCAATTCACGACGATAGTGCAGTGGATACATTCGGCCCTTACCATGAGATAGTAAGTGCAATCT,no binding,–
LCN2_apta19 (ssDNA) DNA: ATACCAGCTTATTCAATTCGACAAAGGAGCTACGTCTACATAGCGTGGTGAGTGCTTGAGATAGTAAGTGCAATCT,–,66.6 nM
LCN2_apta4 (ssDNA) DNA: ATACCAGCTTATTCAATTCGGAGGGCGGAAGCAAAGCGTAACAGAAAGCCAACACGCGAGATAGTAAGTGCAATCT,–,0.0609 nM
LCN2_apta2 (ssDNA) DNA: ATACCAGCTTATTCAATTCCACAGTAGGTGAGGTTCACTGAGTTATCCATTGTTGGCAAGATAGTAAGTGCAATCT,–,0.00224 nM
LCN2_apta23 (ssDNA) DNA: ATACCAGCTTATTCAATTCGTATCAGAATCGCGTGTCACCTTATCTGCCGTATGGGTGAGATAGTAAGTGCAATCT,–,158 nM
LCN2_apta15 (ssDNA) DNA: ATACCAGCTTATTCAATTCCACACCAGTCCTTGTTCGTAGATCACGGTTTCTTCAGGAAGATAGTAAGTGCAATCT,no binding,–
LCN2_apta32 (ssDNA) DNA: ATACCAGCTTATTCAATTCGAGTCATTGTTTTGCAAAGGATTATGCGTTGTAACGGAGAGATAGTAAGTGCAATCT,no binding,–
LCN2_apta20 (ssDNA) DNA: ATACCAGCTTATTCAATTCCACAAACGGTACTGGACAGTTCTTATATGCTTACATTTGAGATAGTAAGTGCAATCT,–,10.9 nM
